Data: IntAct's records for PubMed 25006247

B1: Pyrin (Homo sapiens), O15553 (parent)
chain: MAKTPSDHLLSTLEELVPYDFEKFKFKLQNTSVQKEHSRIPRSQIQRARPVKMATLLVTYYGEEYAVQLTLQVLRAINQRLLAEELHRAAIQEYSTQENGTDDSAASSSLGENKPRSLKTPDHPEGNEGNGPRPYGGGAASLRCSQPEAGRGLSRKPLSKRREKASEGLDAQGKPRTRSPALPGGRSPGPCRALEGGQAEVRLRRNASSAGRLQGLAGGAPGQKECRPFEVYLPSGKMRPRSLEVTISTGEKAPANPEILLTLEEKTAANLDSATEPRARPTPDGGASADLKEGPGNPEHSVTGRPPDTAASPRCHAQEGDPVDGTCVRDSCSFPEAVSGHPQASGSRSPGCPRCQDSHERKSPGSLSPQPLPQCKRHLKQVQLLFCEDHDEPICLICSLSQEHQGHRVRPIEEVALEHKKKIQKQLEHLKKLRKSGEEQRSYGEEKAVSFLKQTEALKQRVQRKLEQVYYFLEQQEHFFVASLEDVGQMVGQIRKAYDTRVSQDIALLDALIGELEAKECQSEWELLQDIGDILHRAKTVPVPEKWTTPQEIKQKIQLLHQKSEFVEKSTKYFSETLRSEMEMFNVPELIGAQAHAVNVILDAETAYPNLIFSDDLKSVRLGNKWERLPDGPQRFDSCIIVLGSPSFLSGRRYWEVEVGDKTAWILGACKTSISRKGNMTLSPENGYWVVIMMKENEYQASSVPPTRLLIKEPPKRVGIFVDYRVGSISFYNVTARSHIYTFASCSFSGPLQPIFSPGTRDGGKNTAPLTICPVGGQGPD

Variants of: B1
Details: with asc_human PYCARD

| Variant | effect of a mutation on the interaction |
| --- | --- |
| E14A | decreasing interaction strength |
| R88A | with no effect |
| E84A | with no effect |
| R75A | decreasing interaction strength |
| Q29A | with no effect |
| R49A | with no effect |
| R80A | decreasing interaction strength |
| L10A | decreasing interaction strength |
| L71A | decreasing interaction strength |
| H37A | with no effect |
| Q46A | with no effect |
| V58A | increasing interaction strength |
| A89T | with no effect |
| R42W | decreasing interaction strength |
| R42A | decreasing interaction strength |
| E63A | increasing interaction strength |
| E22A | increasing interaction strength |
| K3A | with no effect |
| K25A | disrupting interaction strength |
| K35A | with no effect |

Variants of: B1
Details: with asc_human PYCARD
Remark: another data set of the same source

| Variant | effect of a mutation on the interaction |
| --- | --- |
| R42W | with no effect |
